Assay results reported in PMC3447998 (Biochemistry, 2012).
Where no end group is shown, it is not given here. Me3 = trimethylated alpha-amino group on the N-terminal residue; Me2 = dimethylated alpha-amino group on the N-terminal residue

How the values were obtained:
[1] = target: T1, recombinant human NRMT (N-terminal RCC1 methyltransferase) (human, UniProt Q9BV86 1-223); experiment: ITC
T1 sequence (looked up): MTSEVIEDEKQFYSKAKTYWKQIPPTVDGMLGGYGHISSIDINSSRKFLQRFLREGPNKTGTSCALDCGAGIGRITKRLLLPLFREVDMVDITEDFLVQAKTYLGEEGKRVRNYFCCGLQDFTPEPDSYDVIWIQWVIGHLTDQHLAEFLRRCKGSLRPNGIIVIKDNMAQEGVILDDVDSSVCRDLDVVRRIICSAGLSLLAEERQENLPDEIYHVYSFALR

[2] = target: T1, recombinant human NRMT (N-terminal RCC1 …); experiment: ITC; remark: listed apart in the source

Me3-SPKRIAKRRS [me3SPKRIAKRRS, 10-residue me3-SPK-RCC1 N-terminal product peptide] gave a Ka [1] of 480000 M⁻¹, a Kd [2] of 2000 nM and a dH [2] of -4.33 kcal/mol. The “stoichiometry N” value [2] was 1.2.

Work on SPKRIAKRRS [SPKRIAKRRS, wild-type 10-residue SPK-RCC1 N-terminal peptide] yielded a Ka [1] of 100000 M⁻¹, a Kd [2] of 10000 nM and a dH [2] of -9.94 ± 0.207 kcal/mol. For the same binder, the “stoichiometry N” value [2] was 0.8.

With PPKRIAKRRS [PPKRIAKRRS, 10-residue PPK-RCC1 N-terminal peptide] the “Kd of the first phase of the bi-phasic curve” value [2] was 1.5 nM, the “Kd of the second phase of the bi-phasic curve” value [2] was 140 nM and the “dH of the first phase of the bi-phasic curve” value [2] was -31 ± 0.221 kcal/mol. The “dH of the second phase of the bi-phasic curve” value [2] was -9.43 ± 0.192 kcal/mol.

Me2-PPKRIAKRRS [me2PPKRIAKRRS, 10-residue me2-PPK-RCC1 N-terminal product peptide] gave a Ka [1] of 770000 M⁻¹, a Kd [2] of 1300 nM and a dH [2] of -5.77 ± 0.093 kcal/mol. The “stoichiometry N” value [2] was 0.9.
